Data on seven molecules can be found in patent US20130347134A1 (published 2013).

The term koff denotes a measure of how fast the partners let go of each other.

Residue numbers refer to the chain shown, from its start. Names may count otherwise.

B1: murine platelet glycoprotein Ib alpha (GPIb α) on mouse platelets (receptor, UniProt O35930 17-734, looked up)
chain: QHTCSISKVTSLLEVNCENKKLTALPADLPADTGILHLGENQLGTFSTASLVHFTHLTYLYLDRCELTSLQTNGKLIKLENLDLSHNNLKSLPSLGWALPALTTLDVSFNKLGSLSPGVLDGLSQLQELYLQNNDLKSLPPGLLLPTTKLKKLNLANNKLRELPSGLLDGLEDLDTLYLQRNWLRTIPKGFFGTLLLPFVFLHANSWYCDCEILYFRHWLQENANNVYLWKQGVDVKDTTPNVASVRCANLDNAPVYSYPGKGCPTSSGDTDYDDYDDIPDVPATRTEVKFSTNTKVHTTHWSLLAAAPSTSQDSQMISLPPTHKPTKKQSTFIHTQSPGFTTLPETMESNPTFYSLKLNTVLIPSPTTLEPTSTQATPEPNIQPMLTTSTLTTPEHSTTPVPTTTILTTPEHSTIPVPTTAILTTPKPSTIPVPTTATLTTLEPSTTPVPTTATLTTPEPSTTLVPTTATLTTPEHSTTPVPTTATLTTPEHSTTPVPTTATLTTPEPSTTLTNLVSTISPVLTTTLTTPESTPIETILEQFFTTELTLLPTLESTTTIIPEQNSFLNLPEVALVSSDTSESSPFLNSDFCCFLPLGFYVLGLLWLLFASVVLILLLTWTWHVTPHSLDMEQSAALATSTHTTSLEVQRARQVTMPRAWLLFLQGSLPTFRSSLFLWVRPNGRVGPLVAGRRPSALSQGRGQDLLGTVGIRYSGHSL
notes: whole, on cells; Native receptor on mouse platelets or whole blood; also called murine GPIb α; mGPIb-α
B2: recombinant human VWF-A1 containing 1309I>V and 1326H>R (ligand)
chain: QEPGGLVVPPTDAPVSPTTLYVEDISEPPLHDFYCSRLLDLVFLLDGSSRLSEAEFEVLKAFVVDMMERLRVSQKWVRVAVVEYHDGSRAYIGLKDRKRPSELRRIASQVKYAGSQVASTSEVLKYTLFQIFSKIDRPEASRIALLLMASQEPQRMSRNFVRYVQGLKKKKVIVIPVGIGPHANLKQIRLIEKQAPENKAFVLSSVDELEQQRDEIVSYLCDLAPEAPPPTLPPH
B3: recombinant human VWF-A1 containing 1309I>V and the type 2M mutation 1324G>S (ligand)
chain: B2 chain with G87S, R89H
B4: recombinant murine rVWF-A1 1326R>H (residues 1238 to 1471), Example 3 (ligand)
chain: QEPGGLVAPPTDAPVSSTTPYVEDTPEPPLHNFYCSKLLDLVFLLDGSSMLSEAEFEVLKAFVVGMMERLHISQKRIRVAVVEYHDGSHAYLELKARKRPSELRRITSQIKYTGSQVASTSEVLKYTLFQIFGKIDRPEASHITLLLTASQEPPRMARNLVRYVQGLKKKKVIVIPVGIGPHASLKQIRLIEKQAPENKAFLLSGVDELEQRRDEIVSYLCDLAPEAPAPTQPP
B5: recombinant wild-type murine VWF-A1 protein, His-tagged (amino acids 1233 to 1471, pQE9), Examples 1-2 (ligand)
chain: TCEACQEPGGLVAPPTDAPVSSTTPYVEDTPEPPLHNFYCSKLLDLVFLLDGSSMLSEAEFEVLKAFVVGMMERLHISQKRIRVAVVEYHDGSRAYLELKARKRPSELRRITSQIKYTGSQVASTSEVLKYTLFQIFGKIDRPEASHITLLLTASQEPPRMARNLVRYVQGLKKKKVIVIPVGIGPHASLKQIRLIEKQAPENKAFLLSGVDELEQRRDEIVSYLCDLAPEAPAPTQPP
notes: Disulfide C1272-C1458; also called mouse VWF-A1; M VWF-A1; not shown: 10 vector-derived N-terminal amino acids including 6xHis (pQE9)
B6: recombinant murine VWF-A1 with histidine for arginine at position 1326 (Example 1) (ligand)
chain: B5 chain with R94H
notes: also called mutated murine protein; not shown: 10 vector-derived N-terminal amino acids including 6xHis (pQE9)
B7: recombinant murine VWF-A1 containing the type 2B mutation I1309V (1309I>V) (ligand)
chain: B5 chain with I77V
notes: not shown: 10 vector-derived N-terminal amino acids including 6xHis (pQE9)

Test [1] has as its target T1, murine plasma VWF containing the 1326R>H mutation (VWF^1326R>H) (mouse, UniProt Q8CIZ8 764-2813).
T1 construct: also called R1326H mutant mouse VWF; mutant murine VWF
Description: statement in Example 1; binding reduced.

In test [2] the target is T2, mouse plasma VWF containing the majority of the human A1 domain (amino acids 1240P through 1481G of human VWF) (mouse VWF with human A1 domain, UniProt Q8CIZ8 764-2813, limits assumed).
T2 construct: Plasma VWF from homozygous VWF-HA1 mice; also called VWF-HA1; VWF HA1
Description: parallel-plate flow system: WT mouse blood infused over surface-immobilized plasma VWF.

Test [3] deals with T3, murine plasma von Willebrand factor (VWF), wild type (mouse, UniProt Q8CIZ8 764-2813).
T3 construct: Plasma-derived multimeric mouse VWF; also called mouse VWF; murine VWF
The experiment in a line: mouse whole blood perfused 4 min over surface-immobilized plasma VWF, 1600 s-1. The method, then:
Ex vivo platelet adhesion studies. Experiments were performed in a parallel-plate flow chamber as previously described (Offermanns, S., et al., 2006). […] Subsequently, the plate was washed and non-specific interactions blocked by the addition of TBS containing 3% BSA, pH 7.4 (1 hour, 37° C.). Human or murine plasma obtained from heparinized whole blood was added and the plates placed at 37° C. for an additional 2 hours. […] The number of platelets attached per unit area (0.07 mm²) and translocation velocities were determined by off-line analysis (Image-Pro Plus, Media Cybernetics). For GPIb α inhibition studies, the function-blocking mAb 6D1 (20 μg/ml) or mAb SZ2 (20 μg/ml; Beckman Coulter, Brea, Calif.) was added to anticoagulated human blood for 30 minutes prior to use. Experiments were performed in triplicate on two separate days. An ELISA was used to ensure equivalent coating concentration of plasma and recombinant proteins (Denis, C. et al., 1998).

Test [4] deals with T4, human platelet glycoprotein Ib alpha (GPIb α) on human platelets (human, UniProt P07359 17-652).
T4 construct: whole, on cells; Native receptor on washed platelets or whole blood; also called GPIb alpha; hGPIb-α
The experiment in a line: interaction times of VWF-A1-coated beads on surface-immobilized platelets, wall shear stress 1 dyn cm^-2. As to the method: (§1) The duration of these interactions are measured by recording images from a Nikon X60 DIC objective (oil immersion) viewed at a frame rate of 235 fps (Speed Vision Technologies, San Diego, Calif.) and subjected to wall shear stresses (WSS) ranging from 0.5 to 3.0 dyn cm⁻². […] The force acting on the i tether bond was calculated from force balance equations and koff plotted as a function of these forces. […] Because these platelets cannot activate, the kinetics should be reflective of GPIb α in the resting state.

The target of test [5] is T4, human platelet glycoprotein Ib alpha …. The experiment in a line: interaction times of VWF-A1-coated beads on surface-immobilized platelets, wall shear stress 1 dyn cm^-2; 1309I>V + 1326H>R double mutant; 1 dyn cm^-2 wall shear stress. As to the method:
as §1

Test [6] has the same target. The experiment in a line: human platelet attachment in flow to human VWF-A1 as a function of wall shear rate.
For test [7] the target is unchanged. The experiment in a line: parallel-plate flow chamber: human whole blood perfused over the surface-immobilized recombinant A1 protein, shear rate 1600 s^-1, accumulated platelets counted.
In test [8] the target is B1. Description: transient tethers of VWF-A1-coated beads on surface-immobilized murine platelets; shear stress 0.5 dyn cm-2; R2 0.96. The method, then:
(§2) The force acting on the i tether bond was calculated from force balance equations and koff plotted as a function of these forces. […] Because these platelets cannot activate, the kinetics should be reflective of GPIb α in the resting state.
(§3) This antibody was made by immunizing Fischer 344 rats (3-4 months old) with recombinant WT protein. […] Spleens from animals with the highest antibody titers were harvested and splenocytes fused with Sp2/0 mouse myeloma cells (Kohler, et al., 1975).

The target in test [9] is T4, human platelet glycoprotein Ib alpha …. Description: human platelets (5x10^7/ml) perfused over coverslips coated with VWF-A1 (100 µg/ml), parallel plate flow chamber, 800 s-1. As to the method:
(§4) The protein was subsequently used in a series of in vitro flow chamber assays to assess function. […] After 5 minutes of continuous flow, adherent platelets were quantified.

Test [10] addresses B1. The experiment in a line: transient tethers of VWF-A1-coated beads on surface-immobilized murine platelets; shear stress 2.0 dyn cm-2; R2 0.95. The method, then:
as §2, §3

The target in test [11] is B1. The experiment in a line: transient tethers of VWF-A1-coated beads on surface-immobilized murine platelets; shear stress 3.0 dyn cm-2; R2 0.98. As to the method:
as §2, §3

In test [12] the target is B1. Description: platelet adhesion to coated protein, wall shear rate 800 s^-1. As to the method:
as §4
(§5) Subsequently, the ability of murine and human platelets to interact with this mutant protein substrate was evaluated at a wall shear rate of 800 s⁻¹.

Test [13] concerns the target T4, human platelet glycoprotein Ib alpha …. Description: human platelets perfused over immobilized mutant VWF-A1, wall shear rate 800 s-1.
The target of test [14] is B1. Description: platelet translocation on coated protein, wall shear rate 800 s^-1. The method, then: as §4, §5
In test [15] the target is B1. The experiment in a line: transient tethers of VWF-A1-coated beads on surface-immobilized murine platelets; shear stress 2.0 dyn cm-2; R2 0.98. The method, then:
as §2, §3

The target of test [16] is B1. The experiment in a line: transient tethers of VWF-A1-coated beads on surface-immobilized murine platelets; shear stress 1.0 dyn cm-2; R2 0.95. The method, then: as §2, §3

T2 sequence (Q8CIZ8 other isoform, or with tags, fused parts or gaps limits assumed): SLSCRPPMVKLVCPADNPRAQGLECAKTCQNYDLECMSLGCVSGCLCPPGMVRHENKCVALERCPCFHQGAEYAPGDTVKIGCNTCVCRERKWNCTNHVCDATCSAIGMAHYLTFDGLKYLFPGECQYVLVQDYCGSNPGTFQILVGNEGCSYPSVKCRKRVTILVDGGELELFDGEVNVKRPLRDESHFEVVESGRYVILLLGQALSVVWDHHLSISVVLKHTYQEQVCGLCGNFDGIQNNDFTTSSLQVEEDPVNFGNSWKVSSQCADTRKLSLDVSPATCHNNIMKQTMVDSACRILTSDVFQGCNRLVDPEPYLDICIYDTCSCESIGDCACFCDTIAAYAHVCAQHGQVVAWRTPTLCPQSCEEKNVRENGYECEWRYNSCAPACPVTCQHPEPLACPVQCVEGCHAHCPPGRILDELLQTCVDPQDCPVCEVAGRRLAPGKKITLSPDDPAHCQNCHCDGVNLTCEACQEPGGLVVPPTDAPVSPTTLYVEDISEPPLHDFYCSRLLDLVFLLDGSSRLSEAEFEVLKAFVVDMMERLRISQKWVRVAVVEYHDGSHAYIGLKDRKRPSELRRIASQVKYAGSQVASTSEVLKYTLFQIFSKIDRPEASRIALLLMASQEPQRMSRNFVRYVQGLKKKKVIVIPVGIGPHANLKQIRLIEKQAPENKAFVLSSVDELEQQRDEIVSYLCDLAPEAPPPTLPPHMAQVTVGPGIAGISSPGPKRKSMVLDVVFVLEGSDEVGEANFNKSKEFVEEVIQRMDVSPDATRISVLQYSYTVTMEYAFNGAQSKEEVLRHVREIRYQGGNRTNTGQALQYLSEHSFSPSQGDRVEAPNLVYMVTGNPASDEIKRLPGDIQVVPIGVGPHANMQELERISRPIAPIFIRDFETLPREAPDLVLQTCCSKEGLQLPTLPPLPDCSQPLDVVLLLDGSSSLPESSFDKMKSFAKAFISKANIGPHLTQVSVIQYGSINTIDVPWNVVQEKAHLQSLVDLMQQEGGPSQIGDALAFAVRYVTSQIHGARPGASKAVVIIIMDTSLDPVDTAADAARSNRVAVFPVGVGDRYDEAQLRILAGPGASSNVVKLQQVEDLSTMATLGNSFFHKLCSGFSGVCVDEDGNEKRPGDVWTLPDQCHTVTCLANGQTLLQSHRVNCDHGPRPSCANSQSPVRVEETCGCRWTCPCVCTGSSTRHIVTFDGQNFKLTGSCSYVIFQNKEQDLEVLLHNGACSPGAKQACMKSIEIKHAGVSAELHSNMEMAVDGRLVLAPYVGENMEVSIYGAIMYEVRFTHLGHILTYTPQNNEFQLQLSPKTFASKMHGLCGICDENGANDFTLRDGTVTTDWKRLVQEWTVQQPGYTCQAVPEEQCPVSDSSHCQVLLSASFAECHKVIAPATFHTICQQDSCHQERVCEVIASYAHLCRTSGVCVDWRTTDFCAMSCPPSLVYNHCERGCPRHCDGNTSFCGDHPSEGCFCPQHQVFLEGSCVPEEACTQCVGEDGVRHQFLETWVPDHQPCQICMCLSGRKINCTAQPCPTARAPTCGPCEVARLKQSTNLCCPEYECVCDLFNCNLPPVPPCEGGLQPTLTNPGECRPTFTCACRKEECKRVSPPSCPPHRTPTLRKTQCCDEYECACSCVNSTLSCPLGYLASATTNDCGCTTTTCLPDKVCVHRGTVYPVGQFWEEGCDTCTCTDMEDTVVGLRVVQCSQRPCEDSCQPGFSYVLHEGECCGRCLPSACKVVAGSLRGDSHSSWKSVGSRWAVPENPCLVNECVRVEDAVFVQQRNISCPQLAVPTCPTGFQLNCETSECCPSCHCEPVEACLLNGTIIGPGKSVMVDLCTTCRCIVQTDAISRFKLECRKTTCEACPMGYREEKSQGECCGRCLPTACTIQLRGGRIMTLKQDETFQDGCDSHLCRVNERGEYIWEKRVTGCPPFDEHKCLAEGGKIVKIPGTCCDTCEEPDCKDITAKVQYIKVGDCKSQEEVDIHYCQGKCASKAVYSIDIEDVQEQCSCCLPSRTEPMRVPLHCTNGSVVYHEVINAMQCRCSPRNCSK
T3 sequence (Q8CIZ8 other isoform, or with tags, fused parts or gaps limits assumed): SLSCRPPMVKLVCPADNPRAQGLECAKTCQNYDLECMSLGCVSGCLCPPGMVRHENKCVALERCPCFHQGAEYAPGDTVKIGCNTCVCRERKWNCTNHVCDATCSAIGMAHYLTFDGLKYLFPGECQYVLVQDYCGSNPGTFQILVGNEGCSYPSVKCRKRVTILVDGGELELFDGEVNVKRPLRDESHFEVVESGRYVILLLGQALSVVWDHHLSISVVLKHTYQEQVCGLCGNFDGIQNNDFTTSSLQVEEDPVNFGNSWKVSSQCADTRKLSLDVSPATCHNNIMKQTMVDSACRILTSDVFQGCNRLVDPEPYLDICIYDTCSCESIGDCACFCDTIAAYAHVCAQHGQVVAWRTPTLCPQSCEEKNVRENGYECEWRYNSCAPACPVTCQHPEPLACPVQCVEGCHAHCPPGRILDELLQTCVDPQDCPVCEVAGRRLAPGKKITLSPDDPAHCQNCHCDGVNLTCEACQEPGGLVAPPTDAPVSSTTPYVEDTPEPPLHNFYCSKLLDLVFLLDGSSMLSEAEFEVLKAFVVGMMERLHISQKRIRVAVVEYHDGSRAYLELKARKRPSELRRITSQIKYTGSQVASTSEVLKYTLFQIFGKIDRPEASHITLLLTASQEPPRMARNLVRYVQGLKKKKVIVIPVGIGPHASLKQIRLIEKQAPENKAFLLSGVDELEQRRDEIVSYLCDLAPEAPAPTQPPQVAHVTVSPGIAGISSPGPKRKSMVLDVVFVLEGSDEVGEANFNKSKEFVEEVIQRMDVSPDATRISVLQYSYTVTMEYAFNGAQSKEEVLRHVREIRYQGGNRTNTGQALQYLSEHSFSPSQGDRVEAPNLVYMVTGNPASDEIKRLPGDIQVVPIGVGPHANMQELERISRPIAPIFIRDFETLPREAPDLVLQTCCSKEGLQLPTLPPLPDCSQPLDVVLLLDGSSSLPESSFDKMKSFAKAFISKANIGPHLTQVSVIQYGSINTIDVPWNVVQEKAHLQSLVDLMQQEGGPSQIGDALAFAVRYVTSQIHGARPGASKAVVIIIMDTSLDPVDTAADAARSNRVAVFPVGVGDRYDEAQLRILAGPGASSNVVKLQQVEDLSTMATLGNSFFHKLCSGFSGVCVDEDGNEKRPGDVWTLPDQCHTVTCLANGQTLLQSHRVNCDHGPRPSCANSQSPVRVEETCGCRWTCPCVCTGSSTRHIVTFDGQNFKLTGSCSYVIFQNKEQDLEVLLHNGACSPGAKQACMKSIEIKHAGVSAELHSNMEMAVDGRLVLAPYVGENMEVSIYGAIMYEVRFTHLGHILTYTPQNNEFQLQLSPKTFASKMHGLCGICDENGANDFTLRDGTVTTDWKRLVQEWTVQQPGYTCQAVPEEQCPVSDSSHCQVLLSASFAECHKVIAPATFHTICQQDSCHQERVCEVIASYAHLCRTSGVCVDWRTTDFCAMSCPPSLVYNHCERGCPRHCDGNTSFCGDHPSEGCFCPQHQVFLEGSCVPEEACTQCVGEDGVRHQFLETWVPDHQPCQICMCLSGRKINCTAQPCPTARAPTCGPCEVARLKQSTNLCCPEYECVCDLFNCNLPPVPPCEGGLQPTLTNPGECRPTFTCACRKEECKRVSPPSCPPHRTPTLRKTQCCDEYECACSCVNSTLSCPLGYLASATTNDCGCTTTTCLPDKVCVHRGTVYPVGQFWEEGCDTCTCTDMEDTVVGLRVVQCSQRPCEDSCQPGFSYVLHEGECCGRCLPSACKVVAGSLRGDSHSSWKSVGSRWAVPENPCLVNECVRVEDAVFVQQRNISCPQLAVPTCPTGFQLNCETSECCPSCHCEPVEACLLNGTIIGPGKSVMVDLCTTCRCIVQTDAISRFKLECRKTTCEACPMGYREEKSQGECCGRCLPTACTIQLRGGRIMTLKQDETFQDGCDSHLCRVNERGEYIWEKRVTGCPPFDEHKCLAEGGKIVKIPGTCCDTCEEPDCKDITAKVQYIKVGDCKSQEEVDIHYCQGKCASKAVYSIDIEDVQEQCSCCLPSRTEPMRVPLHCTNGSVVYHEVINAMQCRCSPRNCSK

Regarding B1, the binding result in test [1] is on record as “binds”; in test [2] it was “no binding”; in test [3], “binds”.

For the molecule B2, the “fold reduction in koff versus the single 1326H>R mutant” value in test [4] was determined as 2 fold. In [5], the koff amounted to 8.5 s⁻¹.

B3: the binding result in test [6] is reported as “no binding”.

As to B4, the binding result in [7] is reported as “binds”.

As to B5, the results for the off-rate constant (koff) in test [8], in test [10] and in test [11] were 5.1 s⁻¹, 8.4 s⁻¹ and 9.9 s⁻¹, respectively. In addition, in test [9], the binding result is “binds”.

As for B6, the “fold reduction in platelet adhesion versus WT mouse protein” value in test [12] was about 5 fold. In test [13], the binding result is recorded as “binds”. In addition, the “fold increase in translocation velocity versus WT mouse protein” value in test [14] is about 7 fold.

Turning to B7, the koff was 0.7 s⁻¹ in test [8], 1.6 s⁻¹ in test [15] and 0.9 s⁻¹ in test [16].
